Results: PMC6220267 (2018)

Experiments:
Experiment in all cases: BLI
Aβ42 oligomers (soluble) [1] = biological target: T1, Aβ42 oligomers (soluble) (UniProt P05067 672-713)
Aβ42 oligomers (soluble) [2] = biological target: T1, Aβ42 oligomers (soluble); remark: listed apart in the source
Aβ42 monomers = Aβ42 monomers (UniProt P05067 672-713)
Aβ40 monomers = Aβ40 monomers (UniProt P05067 672-711)

Binder | koff (Aβ42 oligomers (soluble) [1]) [s⁻¹] | Kd (Aβ42 oligomers (soluble) [2]) [pM] | Kd (Aβ42 monomers) [pM] | Kd (Aβ40 monomers) [pM]
soluble TREM2‐Fc (soluble ectodomain of human TREM2 fused to the Fc domain of human IgG4, V5 epitope) (Fc fusion) HNTTVFQGVAGQSLQVSCPYDSMKHWGRRKAWCRQLGEKGPCQRVVSTHNLWLLSFLRRWNGSTAITDDTLGGTLTITLRNLQPHDAGLYQCQSLHGSEADTLRKVLVEVLADPLDHRDAGDLWFPGESESFEDAHVEHSISRSLLEGEIPFPPTS | – | – | 290000 | 140000
soluble TREML1‐Fc (human, soluble ectodomain) (Fc fusion) QGIVGSLPEVLQAPVGSSILVQCHYRLQDVKAQKVWCRFLPEGCQPLVSSAVDRRAPAGRRTFLTDLGGGLLQVEMVTLQEEDAGEYGCMVDGARGPQILHRVSLNILPPEEEEETHKIGSLAENAFSDPAGSANPLEPSQDEKSIP | 1e-07 | 1 | – | –

Results, then the binder that gave them:

koff (Aβ42 oligomers (soluble) [1]) [s⁻¹] | Kd (Aβ42 oligomers (soluble) [2]) [pM] | Kd (Aβ42 monomers) [pM] | Kd (Aβ40 monomers) [pM] | Binder
1e-07 | 1 | – | – | soluble mouse Treml1‐Fc (soluble ectodomain) (Fc fusion) DSHPEVLQAPVGSSILVQCHYRLQDVRALKVWCQFLQEGCHPLVTSAVDRRAPGNGRIFLTDLGGGLLQVEMVTLQEEDTGEYGCVVEGAAGPQTLHRVSLLVLPPVPGPREGEEAEDEKETYRIGTGSLLEDPSLDPSASAGPHEFRRRENSIP
1e-07 | 1 | – | – | soluble mouse Trem2‐Fc (soluble ectodomain) (Fc fusion) LNTTVLQGMAGQSLRVSCTYDALKHWGRRKAWCRQLGEEGPCQRVVSTHGVWLLAFLKKRNGSTVIADDTLAGTVTITLKNLQAGDAGLYQCQSLRGREAEVLQKVLVEVLEDPLDDQDAGDLWVPEESSSFEGAQVEHSTSRNQETSFPPTS
